Reference: the supplement of paper PMC10065799, “High-throughput profiling of sequence recognition by tyrosine kinases and SH2 domains using bacterial peptide display” (eLife, 2023)

Key:
AncSZ = assay: phosphorylation enrichment, bacterial display (enrichment ratio); higher = better substrate or ligand; peptides without Tyr show the background
EPHB1 = EPHB1 (UniProt P54762); assay: as above
EPHB2 = EPHB2 (UniProt P29323); assay: as above
FGFR1 = FGFR1 (UniProt P11362); assay: as above
FGFR3 = FGFR3 (UniProt P22607); assay: as above
Fer (mouse) = assay: as above
Fes = Fes (UniProt P07332); assay: as above
Chain of Fes (P07332 whole entry, looked up): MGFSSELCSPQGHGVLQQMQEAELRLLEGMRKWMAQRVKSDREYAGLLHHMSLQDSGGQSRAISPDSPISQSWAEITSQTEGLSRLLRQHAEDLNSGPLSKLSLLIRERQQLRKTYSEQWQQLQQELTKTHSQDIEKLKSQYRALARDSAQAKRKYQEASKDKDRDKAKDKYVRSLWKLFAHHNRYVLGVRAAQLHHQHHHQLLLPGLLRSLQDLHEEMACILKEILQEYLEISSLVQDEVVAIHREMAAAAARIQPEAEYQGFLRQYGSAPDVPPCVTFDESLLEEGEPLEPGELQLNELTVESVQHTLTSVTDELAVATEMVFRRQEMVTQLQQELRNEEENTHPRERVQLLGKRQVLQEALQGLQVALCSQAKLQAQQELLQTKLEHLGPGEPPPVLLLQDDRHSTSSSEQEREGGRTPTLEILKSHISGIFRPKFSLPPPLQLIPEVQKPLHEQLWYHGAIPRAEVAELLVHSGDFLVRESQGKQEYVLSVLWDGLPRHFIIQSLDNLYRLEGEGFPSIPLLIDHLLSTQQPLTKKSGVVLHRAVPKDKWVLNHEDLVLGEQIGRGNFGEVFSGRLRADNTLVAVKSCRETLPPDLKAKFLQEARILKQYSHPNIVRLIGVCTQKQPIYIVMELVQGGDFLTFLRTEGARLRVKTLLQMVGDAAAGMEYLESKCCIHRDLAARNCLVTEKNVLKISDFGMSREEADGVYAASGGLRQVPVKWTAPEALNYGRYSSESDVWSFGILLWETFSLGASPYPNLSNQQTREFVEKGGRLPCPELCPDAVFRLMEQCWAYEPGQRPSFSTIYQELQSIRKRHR

Fyn = Fyn (UniProt P06241); assay: as above
Chain of Fyn (P06241 whole entry, looked up): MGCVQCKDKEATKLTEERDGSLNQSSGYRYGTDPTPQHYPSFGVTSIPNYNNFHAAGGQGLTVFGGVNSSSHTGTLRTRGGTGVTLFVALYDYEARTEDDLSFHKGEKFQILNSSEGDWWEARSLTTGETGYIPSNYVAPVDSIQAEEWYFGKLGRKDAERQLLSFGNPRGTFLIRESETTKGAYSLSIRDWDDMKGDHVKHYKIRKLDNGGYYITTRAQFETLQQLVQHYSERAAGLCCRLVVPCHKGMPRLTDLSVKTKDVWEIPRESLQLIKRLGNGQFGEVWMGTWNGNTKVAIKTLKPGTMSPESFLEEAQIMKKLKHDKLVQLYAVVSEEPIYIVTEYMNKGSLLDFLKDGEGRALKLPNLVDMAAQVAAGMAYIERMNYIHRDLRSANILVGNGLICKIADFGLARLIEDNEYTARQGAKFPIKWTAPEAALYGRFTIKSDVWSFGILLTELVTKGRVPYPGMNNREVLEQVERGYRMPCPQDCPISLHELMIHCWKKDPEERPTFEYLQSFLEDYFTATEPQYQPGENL

Hck = Hck (UniProt P08631); assay: as above
Chain of Hck (P08631 whole entry, looked up): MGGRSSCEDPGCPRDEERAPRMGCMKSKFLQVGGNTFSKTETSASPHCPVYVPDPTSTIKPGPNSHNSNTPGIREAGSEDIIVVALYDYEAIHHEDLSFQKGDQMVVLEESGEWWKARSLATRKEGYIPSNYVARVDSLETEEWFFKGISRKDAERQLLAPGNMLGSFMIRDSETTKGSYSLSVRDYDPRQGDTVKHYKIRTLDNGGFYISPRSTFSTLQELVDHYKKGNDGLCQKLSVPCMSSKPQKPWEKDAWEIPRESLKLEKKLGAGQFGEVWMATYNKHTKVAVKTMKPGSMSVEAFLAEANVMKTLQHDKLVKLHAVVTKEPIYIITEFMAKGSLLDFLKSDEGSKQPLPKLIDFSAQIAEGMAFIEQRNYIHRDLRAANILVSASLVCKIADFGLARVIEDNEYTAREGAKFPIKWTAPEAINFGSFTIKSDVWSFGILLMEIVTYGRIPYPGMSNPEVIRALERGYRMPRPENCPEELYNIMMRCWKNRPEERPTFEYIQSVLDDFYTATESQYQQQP

Jak2 = Jak2 (UniProt O60674); assay: as above
Chain of Jak2 (O60674 whole entry, looked up): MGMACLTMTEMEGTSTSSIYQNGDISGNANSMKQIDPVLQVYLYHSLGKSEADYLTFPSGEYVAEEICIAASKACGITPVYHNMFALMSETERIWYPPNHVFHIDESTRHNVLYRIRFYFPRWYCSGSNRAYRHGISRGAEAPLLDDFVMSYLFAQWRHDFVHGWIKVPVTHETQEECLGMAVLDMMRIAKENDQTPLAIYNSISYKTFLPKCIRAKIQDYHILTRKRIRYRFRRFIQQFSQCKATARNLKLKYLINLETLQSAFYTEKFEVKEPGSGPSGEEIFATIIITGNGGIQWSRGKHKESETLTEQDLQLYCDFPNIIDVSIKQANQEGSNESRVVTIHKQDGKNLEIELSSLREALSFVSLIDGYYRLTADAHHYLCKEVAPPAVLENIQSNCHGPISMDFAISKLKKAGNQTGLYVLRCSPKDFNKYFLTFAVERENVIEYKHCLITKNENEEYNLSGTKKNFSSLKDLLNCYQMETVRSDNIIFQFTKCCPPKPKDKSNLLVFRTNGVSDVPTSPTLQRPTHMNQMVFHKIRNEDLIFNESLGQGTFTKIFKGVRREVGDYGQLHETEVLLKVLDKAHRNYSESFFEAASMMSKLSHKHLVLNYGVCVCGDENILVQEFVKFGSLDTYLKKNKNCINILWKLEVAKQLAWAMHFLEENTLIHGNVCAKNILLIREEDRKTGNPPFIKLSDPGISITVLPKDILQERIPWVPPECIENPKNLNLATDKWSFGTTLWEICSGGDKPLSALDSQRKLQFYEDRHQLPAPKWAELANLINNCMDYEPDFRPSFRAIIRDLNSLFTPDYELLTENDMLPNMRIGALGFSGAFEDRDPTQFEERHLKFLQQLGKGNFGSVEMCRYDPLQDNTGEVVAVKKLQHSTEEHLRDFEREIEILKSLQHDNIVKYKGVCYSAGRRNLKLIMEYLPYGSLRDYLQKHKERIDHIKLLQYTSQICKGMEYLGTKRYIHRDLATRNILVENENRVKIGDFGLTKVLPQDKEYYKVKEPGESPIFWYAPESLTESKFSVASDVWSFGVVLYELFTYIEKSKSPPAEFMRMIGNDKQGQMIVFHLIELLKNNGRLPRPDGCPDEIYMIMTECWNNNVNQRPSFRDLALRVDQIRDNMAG

MERTK = MERTK (UniProt Q12866); assay: as above
c-Abl (mouse) = assay: as above
c-Src = assay: as above
Grb2 SH2 = Grb2 SH2 (UniProt P62993); assay: SH2 binding enrichment of the phosphorylated peptide, bacterial display (enrichment ratio); higher = better substrate or ligand; peptides without Tyr show the background
Chain of Grb2 SH2 (P62993 whole entry, looked up): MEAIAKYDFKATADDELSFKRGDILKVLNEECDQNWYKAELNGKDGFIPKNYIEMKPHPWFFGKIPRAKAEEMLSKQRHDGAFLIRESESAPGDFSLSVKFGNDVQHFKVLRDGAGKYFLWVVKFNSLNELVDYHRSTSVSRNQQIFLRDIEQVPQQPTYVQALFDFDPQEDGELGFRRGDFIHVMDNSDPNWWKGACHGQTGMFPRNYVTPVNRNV

SHP2-C SH2 = assay: as above
c-Src SH2 = assay: as above
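Wherever SH2 binding enrichment of the phosphorylated peptide, bacterial display is given: peptide library displayed on the E. coli surface as eCPX fusions, selected cells deep-sequenced, score is each peptide's frequency after selection divided by its frequency in the input.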
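Wherever phosphorylation enrichment, bacterial display is given: 11-residue human phosphosite peptides and single-mutation variants displayed on the E. coli surface, counted by deep sequencing, each peptide's frequency after selection divided by its frequency in the unselected input library; frequency after pTyr selection over input frequency; kinase dosed for 20-30% of maximal phosphorylation in three min.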

Chain of EPHB2 (P29323 whole entry, looked up): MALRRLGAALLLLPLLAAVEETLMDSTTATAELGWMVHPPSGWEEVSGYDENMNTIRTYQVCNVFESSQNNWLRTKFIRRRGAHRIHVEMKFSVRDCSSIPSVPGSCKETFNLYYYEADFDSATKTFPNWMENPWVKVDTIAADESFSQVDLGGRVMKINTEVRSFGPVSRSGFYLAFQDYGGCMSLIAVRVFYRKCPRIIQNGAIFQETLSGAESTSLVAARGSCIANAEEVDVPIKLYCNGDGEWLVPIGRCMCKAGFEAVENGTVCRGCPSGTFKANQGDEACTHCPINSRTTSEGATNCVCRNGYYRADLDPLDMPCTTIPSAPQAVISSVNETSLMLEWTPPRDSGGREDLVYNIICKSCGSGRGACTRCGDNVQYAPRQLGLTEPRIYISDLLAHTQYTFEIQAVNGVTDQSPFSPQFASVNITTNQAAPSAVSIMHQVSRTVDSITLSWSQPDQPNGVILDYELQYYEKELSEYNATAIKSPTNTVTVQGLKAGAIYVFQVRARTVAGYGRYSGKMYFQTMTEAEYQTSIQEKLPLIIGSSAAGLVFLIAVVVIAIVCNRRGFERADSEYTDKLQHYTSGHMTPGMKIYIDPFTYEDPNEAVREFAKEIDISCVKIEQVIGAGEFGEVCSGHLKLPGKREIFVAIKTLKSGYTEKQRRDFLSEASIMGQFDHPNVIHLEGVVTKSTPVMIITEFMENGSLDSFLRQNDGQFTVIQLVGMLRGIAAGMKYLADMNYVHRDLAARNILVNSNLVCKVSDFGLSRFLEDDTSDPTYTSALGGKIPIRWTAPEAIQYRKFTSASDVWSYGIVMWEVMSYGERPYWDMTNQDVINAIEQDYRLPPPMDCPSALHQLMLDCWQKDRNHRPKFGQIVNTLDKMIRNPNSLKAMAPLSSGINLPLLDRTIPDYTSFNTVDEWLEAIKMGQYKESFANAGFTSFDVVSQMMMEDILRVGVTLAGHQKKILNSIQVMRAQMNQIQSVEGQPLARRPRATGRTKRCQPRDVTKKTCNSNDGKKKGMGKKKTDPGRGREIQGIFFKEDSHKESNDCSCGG

Sequence | phosphorylation enrichment (AncSZ) | phosphorylation enrichment (EPHB1) | phosphorylation enrichment (EPHB2) | phosphorylation enrichment (FGFR1) | phosphorylation enrichment (FGFR3) | phosphorylation enrichment (Fer (mouse)) | phosphorylation enrichment (Fes) | phosphorylation enrichment (Fyn) | phosphorylation enrichment (Hck) | phosphorylation enrichment (Jak2) | phosphorylation enrichment (MERTK) | phosphorylation enrichment (c-Abl (mouse)) | phosphorylation enrichment (c-Src) | SH2 binding enrichment (Grb2 SH2) | SH2 binding enrichment (SHP2-C SH2) | SH2 binding enrichment (c-Src SH2)
AAETTYDKILK [GDNF_Y156] | 0.886 | 0.555 | 0.496 | 0.467 | 0.725 | 0.474 | 1.09 | 0.596 | 1.36 | 0.888 | 0.376 | 0.521 | 0.501 | 0.708 | 1.28 | 3.75
AAVDNYCRHNY [HLA-DRB1_Y107_T106N] | 0.621 | 0.519 | 0.669 | 0.521 | 0.649 | 0.427 | 0.808 | 0.388 | 0.461 | 0.612 | 0.46 | 0.502 | 0.376 | 0.765 | 0.72 | 0.631
AAVNGYVFGGG [ECHS1_Y137_A138V] | 0.596 | 0.419 | 0.398 | 0.437 | 0.629 | 0.414 | 0.542 | 0.404 | 0.429 | 0.591 | 0.401 | 0.582 | 0.461 | 0.791 | 0.994 | 0.489
ADFFDYGHGLS [KHDRBS3_Y304_YF] | 0.709 | 0.585 | 0.38 | 0.459 | 0.727 | 0.433 | 0.905 | 0.438 | 0.522 | 1.03 | 0.434 | 0.76 | 0.449 | 0.863 | 0.741 | 0.437
ADKAAYLQSMN [MYH2_Y389_L393M] | 0.499 | 0.545 | 0.419 | 0.47 | 0.654 | 0.411 | 0.761 | 0.415 | 0.436 | 0.609 | 0.366 | 0.591 | 0.459 | 0.788 | 0.525 | 0.449
ADRNHYRRYRR [YBX1_Y145_P149R] | 0.619 | 0.522 | 0.499 | 0.532 | 0.572 | 0.488 | 0.861 | 0.525 | 0.522 | 0.549 | 0.532 | 0.661 | 0.608 | 0.513 | 0.467 | 0.538
ADRSCYDLSCR [GARS1_Y467_H472R] | 0.849 | 0.487 | 0.591 | 0.499 | 0.55 | 0.474 | 0.835 | 0.572 | 0.594 | 0.8 | 0.445 | 0.847 | 0.616 | 1.06 | 0.779 | 1.17
ADSLRYIYPKL [EIF2B3_Y92] | 0.552 | 0.416 | 0.362 | 0.354 | 0.463 | 0.339 | 0.602 | 0.332 | 0.386 | 0.634 | 0.43 | 0.471 | 0.472 | 1.05 | 1.89 | 12.5
ADYYDYGHGLS [KHDRBS3_Y304] | 3.92 | 17.9 | 20.5 | 18.5 | 16.8 | 1.95 | 1.11 | 6.6 | 6.46 | 5.75 | 4.16 | 0.986 | 4.65 | 1.04 | 0.634 | 0.601
AELVQYFMEHH [PTPN11_Y80_YF] | 1.02 | 0.618 | 0.545 | 0.652 | 0.762 | 0.463 | 1.08 | 0.623 | 0.66 | 0.695 | 0.508 | 0.547 | 0.437 | 1.05 | 0.84 | 0.473
AESPEHVHMYT [FAM111A_Y511_Y511H] | 0.812 | 0.523 | 0.474 | 0.533 | 0.609 | 0.432 | 0.861 | 0.476 | 0.547 | 0.687 | 0.377 | 0.476 | 0.369 | 0.822 | 0.674 | 0.489
AEYGLYGAMVR [VSX2_Y222] | 0.99 | 0.824 | 2.5 | 0.456 | 0.604 | 2.03 | 0.786 | 7.64 | 6.91 | 0.675 | 1.97 | 0.908 | 5.06 | 0.806 | 0.636 | 0.508
AFEQQYSPIPR [NOX1_Y373] | 0.767 | 0.404 | 0.512 | 1.07 | 0.769 | 0.451 | 0.707 | 0.624 | 4.92 | 0.583 | 1.25 | 0.701 | 0.989 | 0.772 | 0.724 | 0.508
AFGTVYKGLWI [EGFR_Y727] | 1.2 | 0.532 | 0.587 | 0.517 | 0.755 | 0.511 | 1.13 | 0.593 | 0.525 | 1.16 | 0.39 | 0.724 | 0.619 | 0.857 | 1.3 | 0.628
AFLLLYFNDTH [BMP15_Y235] | 1.15 | 0.761 | 0.496 | 0.49 | 0.915 | 0.525 | 1.41 | 0.445 | 0.482 | 1.26 | 0.43 | 1.16 | 0.486 | 1.01 | 0.79 | 0.566
AGLVQYYMEHH [PTPN11_Y80_E76G] | 0.677 | 0.973 | 0.777 | 0.608 | 0.73 | 0.499 | 0.939 | 0.545 | 0.754 | 0.607 | 0.49 | 0.448 | 0.468 | 1.35 | 1.25 | 1.14
AGVIIYTSRFQ [PFAS_Y538_A535V] | 1.05 | 0.636 | 0.631 | 0.679 | 0.792 | 0.574 | 1.42 | 0.649 | 0.664 | 0.87 | 0.429 | 0.522 | 0.578 | 0.791 | 0.794 | 0.49

Sequence | phosphorylation enrichment (AncSZ) | phosphorylation enrichment (EPHB1) | phosphorylation enrichment (EPHB2) | phosphorylation enrichment (FGFR1) | phosphorylation enrichment (FGFR3) | phosphorylation enrichment (Fer (mouse)) | phosphorylation enrichment (Fes) | phosphorylation enrichment (Fyn) | phosphorylation enrichment (Hck) | phosphorylation enrichment (Jak2) | phosphorylation enrichment (MERTK) | phosphorylation enrichment (c-Abl (mouse)) | phosphorylation enrichment (c-Src) | SH2 binding enrichment (Grb2 SH2) | SH2 binding enrichment (SHP2-C SH2) | SH2 binding enrichment (c-Src SH2)
AHLTEYLSTHY [UQCRC1_Y219_D215H] | 0.716 | 0.462 | 0.396 | 0.475 | 0.585 | 0.371 | 0.639 | 0.402 | 0.517 | 0.647 | 0.464 | 0.475 | 0.453 | 0.845 | 0.724 | 0.511
AIFWRYSKFFD [SH3PXD2B_Y45_R43W_YF] | 0.839 | 0.493 | 0.52 | 0.445 | 0.805 | 0.49 | 1.35 | 0.444 | 0.41 | 1.16 | 0.323 | 0.959 | 0.326 | 1.05 | 0.782 | 0.699
AIGCEYSEINI [SIGLEC12_Y588_Y586C] | 1.94 | 1.24 | 0.797 | 3.95 | 2.99 | 5.32 | 1.27 | 1.79 | 2.42 | 0.924 | 0.492 | 0.928 | 2.47 | 0.603 | 0.362 | 0.631
AIGYEYSEINI [SIGLEC12_Y588] | 1.44 | 0.797 | 0.562 | 5.67 | 3.56 | 6.47 | 0.999 | 1.11 | 2.3 | 0.987 | 0.492 | 0.9 | 2.03 | 0.656 | 1.58 | 8.56
AIIGIYILRDN [CDH23_Y2949_D2954N] | 1.36 | 0.687 | 0.631 | 0.604 | 0.793 | 0.596 | 1.39 | 0.925 | 1.6 | 1.05 | 0.423 | 0.888 | 1.68 | 1.44 | 1.42 | 0.987
AKFPFYEKNKK [FOXL2_Y91] | 0.589 | 0.407 | 0.467 | 0.441 | 0.533 | 0.304 | 0.806 | 0.405 | 0.443 | 0.655 | 0.436 | 0.545 | 0.415 | 1.31 | 1.38 | 0.981
AKLDEYIAIAK [RCOR3_Y46] | 0.92 | 0.614 | 0.565 | 0.535 | 0.711 | 0.452 | 0.949 | 0.479 | 0.473 | 0.79 | 0.522 | 0.621 | 0.367 | 0.945 | 0.83 | 0.434
ALDRPYTSKHS [NANS_Y71_E68D] | 0.612 | 0.364 | 0.508 | 0.379 | 0.566 | 0.474 | 0.638 | 0.499 | 0.489 | 0.636 | 0.448 | 0.637 | 0.542 | 0.926 | 0.613 | 0.485
ALLTKYSHSSM [DSCC1_Y374] | 0.651 | 0.442 | 0.643 | 0.45 | 0.587 | 0.56 | 0.737 | 0.578 | 0.485 | 0.542 | 0.436 | 0.727 | 0.528 | 0.76 | 0.488 | 0.406
ANNEYYFRVCA | 1.4 | 0.895 | 0.759 | 1.89 | 1.94 | 0.469 | 1.4 | 0.471 | 0.657 | 1.53 | 0.439 | 1.08 | 0.526 | 0.646 | 0.461 | 0.402
ANVIHYFPTQA [SLC25A4_Y81_R80H] | 0.623 | 0.528 | 0.415 | 0.487 | 0.56 | 0.393 | 0.652 | 0.483 | 0.446 | 0.794 | 0.456 | 0.806 | 0.515 | 0.9 | 0.94 | 0.435
ARKRKYFKKHE [NFIX_Y40] | 0.602 | 0.511 | 0.535 | 0.554 | 0.591 | 0.281 | 0.653 | 0.561 | 0.605 | 0.477 | 0.472 | 0.64 | 0.56 | 0.911 | 0.409 | 0.259
ARRMEYLASQK [FGFR2_Y616_G613R] | 0.461 | 0.947 | 0.558 | 0.372 | 0.437 | 0.293 | 0.557 | 0.367 | 0.333 | 0.367 | 0.402 | 0.286 | 0.382 | 1.09 | 0.464 | 0.469
ASRKYYAMKIL [AKT3_Y174_G171R] | 0.505 | 0.367 | 0.338 | 0.475 | 0.535 | 0.441 | 0.634 | 0.348 | 0.368 | 0.385 | 0.437 | 0.379 | 0.265 | 1.1 | 1.14 | 1.18
ASSPVYVPTTR [GATA6_Y188] | 0.525 | 0.397 | 0.479 | 0.323 | 0.428 | 0.406 | 0.539 | 0.429 | 0.646 | 0.44 | 0.493 | 0.524 | 0.51 | 0.876 | 0.71 | 0.433
ATCKAYGQALA [TKT_Y321_R318C] | 0.753 | 0.523 | 0.446 | 0.445 | 0.573 | 0.484 | 0.73 | 0.424 | 0.431 | 0.645 | 0.419 | 0.568 | 0.493 | 0.899 | 0.631 | 0.453
